Measured values as given in the supplement of paper PMC11780869.

Test system: Bacillus subtilis
Assay: cleaved RNA product abundance (RNA/gDNA barcode ratio) relative to median wild-type variant (ratio to wild type); higher = more accumulation of the downstream cleavage product
Procedure, shortened: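 Sequencing of barcodes from gel-selected, reverse-transcribed cleaved RNA and from genomic DNA, with UMI collapsing, yielded a per-construct RNA:gDNA ratio. Scaled to the median construct with the unmutated site, this ratio is the cleaved product abundance. The barcoded reporters (truncated aprE or tetM mRNAs with mutagenized RNase Y cleavage-site windows) were integrated into the B. subtilis chromosome, and cultures grew in LB at 37°C from OD600 0.0003 to 0.3.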

[1] = experiment (reporter, strain, medium): exp 2b: truncated aprE reporter, strain BJT200, cleavage site: cggR-gapA (positions -7 to +36 mutated)
[2] = experiment (reporter, strain, medium): exp 4a: truncated aprE reporter, strain BJT201 with 2% xylose (RNase J1 expressed), cleavage site: cggR-gapA (positions -7 to +36 mutated)
[3] = experiment (reporter, strain, medium): exp 8a: truncated aprE reporter, strain BJT201 with 2% xylose (RNase J1 expressed), cleavage site: glnRA (positions -5 to +31 mutated)

Sequence | cleaved RNA product abundance [1] | cleaved RNA product abundance [2] | cleaved RNA product abundance [3]
ACAGACGAAGGAGCCGCAAATAAGTTAGTAAGGGATGAATAATCCCTCAATATAAATATCTCTCACTTATTTAAA | 0.305 | 0.549 | –
ACAGACGAAGGAGCCGCCAAGAAGTTATTAAGGGATGAAAAATCCCTCAATATAAATATCTCTCACTTATTTAAA | – | 0.576 | –
ACAGACGAAGGAGCCGCAAAGAAGTTATTAAGCGATGAATAATCCTTCAATATAAATATCTCTCACTTATTTAAA | 0.0918 | 0.119 | –
ACAGACGAAGGAGCCGCAAAGAAGTTTTTAAGGGATGAATAATCCCTTAATATAAATATCTCTCACTTATTTAAA | 0.844 | 0.798 | –
ACAGACGAAGGAGCCGCAAAGAAGTTATTAAGGTTTGAATAATCCCTCAATATAAATATCTCTCACTTATTTAAA | 0.102 | 0.144 | –
ACAGACGAAGGAGCCGCAAAGCAGTTATTAAGGGATGAAAAATCCCTCAATATAAATATCTCTCACTTATTTAAA | – | 0.687 | –
ACAGACGAAGGAGCCGCAAAGAAGTTATTAAGGCATGAATAATCCCTCAATATAAATAGCTCTCACTTATTTAAA | 0.0721 | 0.0902 | –
CGACATGTCCCGCTTCTTTCATTAATCCGTTAGCAACTGTTTTGCTATATATATTTACCCTTTAAGAGGAGGAAT | – | – | 0.959
ACAGACGAAGGAGCCGCAAAGAAATTATCAAGGGATGAATAATCCCTCAATATAAATATCTCTCACTTATTTAAA | – | 0.475 | –
CGACATGTCCCGCTTCTTTCATTAATCTGTTAGCAACTGTTTTGCCATATACATTTACCTTTTAAGAGGAGGAAT | – | – | 0.108
ACAGACGAAGGAGCCGCAAAGAAGTTATTAAGGGATGAATAATCACTCTATATAAATATCTCTCACTTATTTAAA | 0.0929 | 0.155 | –
CGACATGTCCCGCTTCTTTCATTAATCCGTTAACAACTGTTTTGCTATATACAATTACCTTTTAAGAGGAGGAAT | – | – | 0.242
ACAGACGAAGGAGCCGCAAAGAAGTTATTAAGGGATGAATAATCCCTCAATATAAATTACTCTCACTTATTTAAA | – | 0.951 | –
CGACATGTCCCGCTTCTTTCATTAATCCGTTAGCACCTGTTTTGCTATATACAATTACCTTTTAAGAGGAGGAAT | – | – | 0.867
ACAGACGAAGGAGCCGCAAAGAAGTTATTAAAGGATGAATAATCCCTCCATATAAATATCTCTCACTTATTTAAA | – | 0.0862 | –
CGACATGTCCCGCTTCTTTCATTAATCCGTTAGCAACTGTTTTGCCACGTACATTTACCTTTTAAGAGGAGGAAT | – | – | 0.0527
ACAGACGAAGGAGCCGCAAAGAAGTTATTAAGGCATGAAAAATCCCTCAATATAAATATCTCTCACTTATTTAAA | 0.0832 | 0.0945 | –
CGACATGTCCCGCTTCTTTCATTAATCCGTTAACACCTGTTTTGCTATATACATTTACCTTTTAAGAGGAGGAAT | – | – | 0.258
ACAGACGAAGGAGCCGCAAAGAAGTTATTAAGGAATGAATAATCCCTCCATATAAATATCTCTCACTTATTTAAA | – | 0.0857 | –
ACAGACGAAGGAGCCGCAAAGAAGTTATTAATGGATGAATATTCCCTCAATATAAATATCTCTCACTTATTTAAA | – | 0.107 | –

Sequence | cleaved RNA product abundance [1] | cleaved RNA product abundance [2] | cleaved RNA product abundance [3]
ACAGACGAAGGAGCCGCAAAGAAGTTATGAAGGGATGAATAACCCCTCAATATAAATATCTCTCACTTATTTAAA | – | 0.419 | –
ACAGACGAAGGAGCCGCAAAGAAGTTATTTAAGGGATGAATAATCCCTCAATATAAATATCTCTCACTTATTTAA | – | 0.315 | –
ACAGACGAAGGAGCCGCAAAGAAGTTATTAAGGTATGAATAACCCCTCAATATAAATATCTCTCACTTATTTAAA | 0.0833 | 0.0618 | –
ACAGACGAAGGAGCCGCAAAGAAGTTATGAACGGATGAATAATCCCTCAATATAAATATCTCTCACTTATTTAAA | 0.177 | 0.242 | –
ACAGACGAAGGAGCCGCAAAGAAGTTATTATGAGATGAATAATCCCTCAATATAAATATCTCTCACTTATTTAAA | 0.0958 | 0.147 | –
CGACATGTCCCGCTTCTTTCATTAATCCCTTAGCAACTGTTTTGCTATATACACTTAACTTTTAAGAGGAGGAAT | – | – | 0.255
ACAGACGAAGGAGCCGCAAAGAAATTATTAAGGGATTAATAATCCCTCAATATAAATATCTCTCACTTATTTAAA | 0.978 | 0.912 | –
CGACATGTCCCGCTTCTTTCATTAATCCGTTAGCAACTATTCTGCTATATACATTTACCTTTTAAGAGGAGGAAT | – | – | 0.838
ACAGACGAAGGAGCCGCAAAGAGGTTATTAAGGGATAAATAATCCCTCAATATAAATATCTCTCACTTATTTAAA | – | 0.62 | –
ACAGACGAAGGAGCCGCAAAGAAGTTATTAAGGGATGAACAATCCGTCAATATAAATATCTCTCACTTATTTAAA | – | 0.109 | –
CGACATGTCCCGCTTCTTTCATTAATACGTTTGCAACTGTTTTGCTATATACATTTACCTTTTAAGAGGAGGAAT | – | – | 0.769
CGACATGTCCCGCTTCTTTCATTAATCCGTTAGCAACTGTTTTGCTATATAGAATTACCTTTTAAGAGGAGGAAT | – | – | 1.14
ACAGACGAAGGAGCCGCAAAGAAGTTATTAAGGAATGAATAATCCCGCAATATAAATATCTCTCACTTATTTAAA | – | 0.0576 | –
ACAGACGAAGGAGCCGCAAACAAGTTATTAAGGGATGAATATTCCCTCAATATAAATATCTCTCACTTATTTAAA | – | 0.608 | –
CGACATGTCCCGCTTCTTTCATTAATCCATTAACAACTGTTTTGCTATATACATTTACCTTTTAAGAGGAGGAAT | – | – | 0.198
ACAGACGAAGGAGCCGCAAAGAAGTTATTTAGGGATGAAGAATCCCTCAATATAAATATCTCTCACTTATTTAAA | – | 0.607 | –
CGACATGTCCCGCTTCTTTCATTAATCCGTTACCAACTGTTTTGCTATATACATTAACCTTTTAAGAGGAGGAAT | – | – | 0.238
CGACATGTCCCGCTTCTTTCATTAATCCGTTAGCAACTGCTTTGCTGTATACATTTACCTTTTAAGAGGAGGAAT | – | – | 0.106
CGACATGTCCCGCTTCTTTCATTAATCCGTTAGAAACTGTTTCGCTATATACATTTACCTTTTAAGAGGAGGAAT | – | – | 0.12
CGACATGTCCCGCTTCTTTCATTAATCCGTTAGCAACTGTTGTCCTATATACATTTACCTTTTAAGAGGAGGAAT | – | – | 0.343

Sequence | cleaved RNA product abundance [1] | cleaved RNA product abundance [2] | cleaved RNA product abundance [3]
ACAGACGAAGGAGCCGCAAAGAAGTTATTAAGGGATGAATAATCCATAAATATAAATATCTCTCACTTATTTAAA | 0.17 | 0.261 | –
CGACATGTCCCGCTTCTTTCATTAATCCGTTAGCAACTGTTTTGATATATACATTTATCTTTTAAGAGGAGGAAT | – | – | 0.509
ACAGACGAAGGAGCCGCAAAGAAGTTATTAAGGGATGAATAATCTCTCAATATATATATCTCTCACTTATTTAAA | 0.682 | 0.989 | –
CGACATGTCCCGCTTCTTTCATTAATCCGTTAGCAACTGTTTTGATATATACATTTACCTTTTAAGAGGAGGAAT | – | – | 0.503
CGACATGTCCCGCTTCTTTCATTAATCCGTTAGCAACTGATTTGCTATATACATTTTCCTTTTAAGAGGAGGAAT | – | – | 0.328
ACAGACGAAGGAGCCGCAAAGAATTTATTAAGGGATGAATAATCCCTCGATATAAATATCTCTCACTTATTTAAA | – | 0.422 | –
ACAGACGAAGGAGCCGCAAAGAAGTTATTAAGGGATGAATTATCCCTCACTATAAATATCTCTCACTTATTTAAA | – | 0.208 | –
ACAGACGAAGGAGCCGCAAAGAAGTAAATAAGGAATGAATAATCCCTCAATATAAATATCTCTCACTTATTTAAA | – | 0.0667 | –
ACAGACGAAGGAGCCGCAAAAAAGTCATTAAGGGATGAATAATCCCTCAATATAAATATCTCTCACTTATTTAAA | – | 0.37 | –
CGACATGTCCCGCTTCTTTCATTATTCCGTTAGCAACTGTTTTGCTATATACATTTACGTTTTAAGAGGAGGAAT | – | – | 2.39
ACAGACGAAGGAGCCGCAAAGAAGTTATTAAGGGATGAAGATTCCCTCAATATAAATATCTCTCACTTATTTAAA | – | 0.68 | –
ACAGACGAAGGAGCCGCAAAGAATTTATTAAGGTATGAATAATCCCTCAATATAAATATCTCTCACTTATTTAAA | 0.102 | 0.178 | –
ACAGACGAAGGAGCCGCAAAGAAGTTATTACGGGATGAATAATCCCTAAATATAAATATCTCTCACTTATTTAAA | 0.428 | 0.394 | –
CGACATGTCCCGCTTCTTTCATTAATCCGTTAGCAACTGTTTTTCTATATACATTTACATTTTAAGAGGAGGAAT | – | – | 0.576
ACAGACGAAGGAGCCGCAAAGAAGTTATTAAGGGACGAATAATCCCTCAATATATATATCTCTCACTTATTTAAA | 0.629 | 0.771 | –
ACAGACGAAGGAGCCGCAAAGAAGTTAATAAGGGATGAATAATCTCTCAATATAAATATCTCTCACTTATTTAAA | 0.195 | 0.292 | –
ACAGACGAAGGAGCCGCAAAGAAGTTATTAAGGGTTGAGTAATCCCTCAATATAAATATCTCTCACTTATTTAAA | – | 0.375 | –
CGACATGTCCCGCTTCTTTCATTAATACGTTAGCAACTGTTTTGCTACATACATTTACCTTTTAAGAGGAGGAAT | – | – | 0.381
CGACATGTCCCGCTTCTTTCATTAATCCGTTAGCAACTGTTTTGCTATTTACATTTACCTTTTAAGAGGAGGAAT | – | – | 0.16
CGACATGTCCCGCTTCTTTCATTAATCCGTTAGCAACTGTTTTGCTATATACATATACCATTTAAGAGGAGGAAT | – | – | 0.971
